# Measurements reported in paper PMC3328371.
# Biological target: Dock8 (endogenous) (UniProt Q8C147)
# Test: anti-Flag co-IP, Dock8 immunoblot
# Details: reference: Flag-Mob1B wild type; sites T12,T35
substance,measurement,value
Flag-Mob1B (previously MOBKL1A) (from UniProt Q7L9L4) Flag-Mob1B[Thr12Ala/Thr35Ala],binding against the reference,lost
